Laboratory results reported in patent US20120135912A1 (PERSEID THERAPEUTICS, published 2012).

Molecular target: T1, human VLA4 (integrin alpha4beta1) on the surface of U937 cells (human, UniProt P13612 34-1032; P05556 21-798)
T1 construct: whole, on cells; Endogenous VLA4 of U937 cells; assay buffer held 1 mM each of CaCl2, MgCl2 and MnCl2; also called cell-surface human VLA4
Assay: static cell adhesion assay: calcein-labelled U937 cells on wells coated with 7D-VCAM-1, buffer with 1 mM MnCl2 (Example 13)
Description: Prior to assaying, the U937 cells were re-suspended in labeling buffer (RPMI 1640 culture media without phenol red, 10% FBS; Invitrogen), then labeled with 0.5 μg/ml Calcein-AM at 37° C. for 30 minutes on a rotator. Subsequently, the cells were washed three times with labeling buffer then resuspended at 5×10^6 cells/ml in assay buffer (HEPES CaMgMn buffer: 50 mM HEPES, 150 mM NaCl, 1 mM CaCl₂, 1 mM MgCl₂, 1 mM MnCl2 pH 7.4).
The test compounds (i.e., the 2D-VCAM-1 variant polypeptides) were diluted in dilution buffer and added to VCAM-1-coated plates. […] Plates were spun down at 280×g for 5 minutes with assay buffer decanted by inversion before measuring fluorescence intensity (excitation=485 nm, emission=530 nm) with LJL Analyst HT 96.384 (Molecular Devices, Sunnyvale, Calif.).
FIG. 5 is a graph showing the cell adhesion index for anti-VLA4-antibody (used as a positive control for maximal inhibition of cell adherence), dilution buffer alone (“no treatment”, a control to show maximal cell adherence to the immobilized VCAM-1), 2D-VCAM-1 valiant Clone 46 (SEQ ID NO:12), Q38L-2D-VCAM-1 polypeptide (SEQ ID NO:10), and human 2D-VCAM-1 (SEQ ID NO:2). The cell adhesion index was calculated as (fluorescence intensity, VCAM-coated well)/(fluorescence intensity, non-CAM-1-coated well). […]

T1 sequence (P13612 34-1032, chain 1 of 2): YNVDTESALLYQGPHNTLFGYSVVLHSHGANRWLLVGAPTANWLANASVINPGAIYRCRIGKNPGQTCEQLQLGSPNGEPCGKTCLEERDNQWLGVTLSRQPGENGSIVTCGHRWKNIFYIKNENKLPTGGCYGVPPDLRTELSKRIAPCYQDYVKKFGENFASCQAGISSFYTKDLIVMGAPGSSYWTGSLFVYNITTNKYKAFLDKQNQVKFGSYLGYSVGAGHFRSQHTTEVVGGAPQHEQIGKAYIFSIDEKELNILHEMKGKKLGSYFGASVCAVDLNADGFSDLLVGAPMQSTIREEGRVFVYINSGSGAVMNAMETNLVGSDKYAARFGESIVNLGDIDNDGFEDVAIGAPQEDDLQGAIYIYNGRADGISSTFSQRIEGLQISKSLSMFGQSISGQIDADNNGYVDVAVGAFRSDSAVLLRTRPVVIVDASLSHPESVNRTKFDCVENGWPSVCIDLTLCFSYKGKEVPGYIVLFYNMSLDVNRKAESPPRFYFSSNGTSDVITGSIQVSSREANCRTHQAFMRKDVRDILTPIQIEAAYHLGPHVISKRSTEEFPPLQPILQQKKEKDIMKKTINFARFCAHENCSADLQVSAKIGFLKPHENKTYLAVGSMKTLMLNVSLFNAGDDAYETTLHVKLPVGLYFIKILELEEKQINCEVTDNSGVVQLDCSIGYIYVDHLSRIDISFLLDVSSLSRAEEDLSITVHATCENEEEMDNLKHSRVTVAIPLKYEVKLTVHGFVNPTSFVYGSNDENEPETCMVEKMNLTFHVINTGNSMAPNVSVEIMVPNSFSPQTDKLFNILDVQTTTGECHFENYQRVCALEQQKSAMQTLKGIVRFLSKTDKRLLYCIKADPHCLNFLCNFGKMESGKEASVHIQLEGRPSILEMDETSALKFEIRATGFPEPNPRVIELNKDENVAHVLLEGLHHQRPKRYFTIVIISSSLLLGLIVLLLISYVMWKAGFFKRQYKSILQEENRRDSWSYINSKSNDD
T1 sequence (P05556 21-798, chain 2 of 2): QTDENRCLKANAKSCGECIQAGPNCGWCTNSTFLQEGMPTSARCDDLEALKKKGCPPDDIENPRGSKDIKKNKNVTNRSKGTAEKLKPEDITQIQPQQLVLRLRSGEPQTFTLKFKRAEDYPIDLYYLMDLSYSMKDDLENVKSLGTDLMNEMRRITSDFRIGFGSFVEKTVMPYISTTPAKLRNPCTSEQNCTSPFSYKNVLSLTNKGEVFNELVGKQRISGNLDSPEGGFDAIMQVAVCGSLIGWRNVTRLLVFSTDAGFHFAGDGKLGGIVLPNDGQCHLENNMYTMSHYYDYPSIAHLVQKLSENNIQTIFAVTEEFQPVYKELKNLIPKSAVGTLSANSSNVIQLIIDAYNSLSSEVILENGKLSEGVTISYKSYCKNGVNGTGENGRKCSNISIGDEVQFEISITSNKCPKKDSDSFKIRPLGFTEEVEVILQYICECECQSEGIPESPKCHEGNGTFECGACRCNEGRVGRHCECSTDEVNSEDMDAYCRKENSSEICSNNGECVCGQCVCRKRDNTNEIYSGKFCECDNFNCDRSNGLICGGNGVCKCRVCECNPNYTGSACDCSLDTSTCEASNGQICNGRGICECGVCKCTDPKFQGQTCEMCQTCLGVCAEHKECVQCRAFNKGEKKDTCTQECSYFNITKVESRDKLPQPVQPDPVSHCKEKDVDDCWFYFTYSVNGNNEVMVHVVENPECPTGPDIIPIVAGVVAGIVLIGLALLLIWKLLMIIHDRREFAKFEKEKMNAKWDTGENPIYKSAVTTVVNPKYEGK

B1: recombinant human 7D-VCAM-1 (ligand)
chain: FKIETTPESRYLAQIGDSVSLTCSTTGCESPFFSWRTQIDSPLNGKVTNEGTTSTLTMNPVSFGNEHSYLCTATCESRKLEKGIQVEIYSFPKDPEIHLSGPLEAGKPITVKCSVADVYPFDRLEIDLLKGDHLMKSQEFLEDADRKSLETKSLEVTFTPVIEDIGKVLVCRAKLHIDEMDSVPTVRQAVKELQVYISPKNTVISVNPSTKLQEGGSVTMTCSSEGLPAPEIFWSKKLDNGNLQHLSGNATLTLIAMRMEDSGIYVCEGVNLIGKNRKEVELIVQEKPFTVEISPGPRIAAQIGDSVMLTCSVMGCESPSFSWRTQIDSPLSGKVRSEGTNSTLTLSPVSFENEHSYLCTVTCGHKKLEKGIQVELYSFPRDPEIEMSGGLVNGSSVTVSCKVPSVYPLDRLEIELLKGETILENIEFLEDTDMKSLENKSLEMTFIPTIEDTGKALVCQAKLHIDDMEFEPKQRQSTQTLYVNVAPRDTTVLVSPSSILEEGSSVNMTCLSQGFPAPKILWSRQLPNGELQPLSENATLTLISTKMEDSGVYLCEGINQAGRSRKEVELIIQVTPKDIKLTAFPSESVKEGDTVIISCTCGNVPETWIILKKKAETGDTVLKSIDGAYTIRKAQLKDAGVYECESKNKVGSQLRSLTL
notes: Bought from R&D Systems; also called immobilized VCAM-1; 7 domain form of VCAM-1
- binding result: binds
